Experimental data taken from publication PMC4437705 (Nature, 2013).

B1: FabA (E. coli fatty acid 3-hydroxyacyl-ACP dehydratase) as in the crosslinked AcpP=FabA complex (enzyme)
chain: VDKRESYTKEDLLASGRGELFGAKGPQLPAPNMLMMDRVVKMTETGGNFDKGYVEAELDINPDLWFFGCHFIGDPVMPGCLGLDAMWQLVGFYLGWLGGEGKGRALGVGEVKFTGQVLPTAKKVTYRIHFKRIVNRRLIMGLADGEVLVDGRLIYTASDLKVGLFQDTSAF
modifications: H70 covalently connected through probe 1 to S36 of AcpP
B2: holo-AcpP (E. coli acyl carrier protein with 4'-phosphopantetheine) (natural protein)
chain: STIEERVKKIIGEQLGVKQEEVTNNASFVEDLGADSLDTVELVMALEEEFDTEIPDEEAEKITTVQAAIDYINGHQA
modifications: 4'-phosphopantetheine (PPant) on S36
B3: octanoyl-AcpP (E. coli acyl carrier protein with octanoyl-4'-phosphopantetheine) (natural protein)
chain: B2 chain
modifications: octanoyl chain on the PPant arm attached to S36

How the values were obtained:
[1] = biological target: the molecule itself; test: crystal structure
[2] = biological target: T1, apo-FabA (E. coli fatty acid 3-hydroxyacyl-ACP dehydratase, unlabeled, not crosslinked) (E. coli, UniProt P0A6Q3 2-172); test: NMR titration
T1 sequence: B1 chain

Row | Binder | stoichiometry N [1] | binding result [2]
1 | B1 | 2 | 
2 | B2 |  | binds
3 | B3 |  | binds
